Measurements reported in patent US20220289837A1, “Cystic Fibrosis Transmembrane Conductance Regulator Stabilizing Agents” (VIB VZW, priority 2019, published 2022).

Biological target: T1, stab-CFTR: 2PT/ΔRI/R1048A_1172X (Homo sapiens, UniProt P13569, A534P/DEL405-436/I539T/R1048A/S492P)
T1 construct: made in house; host or cells: BHK-21 cells (ATCC CCL-10), pNUT vector
Assay: NanoDSF thermostability of stab-CFTR
Type: binding
Details: versus stab-CFTR alone
Protocol: Purified stabilized human CFTR (stab-CFTR: 2PT/ΔRI/R1048A_1172X) was concentrated to 0.5 mg/ml and mixed with 0.1 mg/ml nanobody (^˜[…]) and capillaries were loaded with a volume of 10 The capillaries were placed into trays of Prometheus NT.48 (Nanotemper) and subjected to the fluorescence analysis. The emission of fluorescent radiation with the wavelengths of 330 nm and 350 nm was measured with the temperature changes from 25 to 85° C., with the rate of 1° C. min-1. The first derivative of 350 nm fluorescence was used to determine the melting temperature of the proteins.

T1 sequence (P13569 with tags, fused parts or gaps DEL405-436/S492P/A534P/I539T/R1048A limits assumed): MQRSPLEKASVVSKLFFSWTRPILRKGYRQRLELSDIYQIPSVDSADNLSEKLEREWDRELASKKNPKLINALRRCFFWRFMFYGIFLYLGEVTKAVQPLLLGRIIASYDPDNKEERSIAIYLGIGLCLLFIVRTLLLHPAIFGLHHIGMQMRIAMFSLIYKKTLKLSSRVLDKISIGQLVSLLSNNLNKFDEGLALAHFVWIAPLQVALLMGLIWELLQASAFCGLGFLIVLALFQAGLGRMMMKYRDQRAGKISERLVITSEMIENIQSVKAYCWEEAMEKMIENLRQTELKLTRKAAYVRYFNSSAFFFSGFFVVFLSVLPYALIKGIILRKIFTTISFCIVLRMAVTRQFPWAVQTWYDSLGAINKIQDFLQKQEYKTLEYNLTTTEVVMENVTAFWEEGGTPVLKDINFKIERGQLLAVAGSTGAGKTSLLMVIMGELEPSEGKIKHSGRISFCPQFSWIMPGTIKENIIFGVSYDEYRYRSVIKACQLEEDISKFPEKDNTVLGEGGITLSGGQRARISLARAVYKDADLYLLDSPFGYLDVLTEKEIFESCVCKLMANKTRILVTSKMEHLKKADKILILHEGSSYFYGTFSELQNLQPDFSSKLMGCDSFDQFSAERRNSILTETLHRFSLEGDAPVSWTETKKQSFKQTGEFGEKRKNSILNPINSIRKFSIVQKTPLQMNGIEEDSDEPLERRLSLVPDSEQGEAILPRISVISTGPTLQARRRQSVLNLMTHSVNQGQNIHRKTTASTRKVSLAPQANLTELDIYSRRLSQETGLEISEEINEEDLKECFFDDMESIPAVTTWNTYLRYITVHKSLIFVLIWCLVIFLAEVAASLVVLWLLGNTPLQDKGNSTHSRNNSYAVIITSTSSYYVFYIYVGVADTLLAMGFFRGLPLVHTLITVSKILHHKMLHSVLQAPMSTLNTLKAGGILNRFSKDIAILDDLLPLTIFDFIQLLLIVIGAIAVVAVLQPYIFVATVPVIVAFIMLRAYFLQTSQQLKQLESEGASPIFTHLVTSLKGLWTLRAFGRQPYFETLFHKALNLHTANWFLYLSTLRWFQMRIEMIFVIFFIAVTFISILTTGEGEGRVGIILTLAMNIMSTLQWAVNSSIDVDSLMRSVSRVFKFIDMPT

B1: T2a: NBD1-specific CFTR-stabilizing nanobody, SEQ ID NO:3, binds epitope 1 (protein)
VHH: QVQLQESGGGLVQAGGSLRLSCAASGSIFRIDAMGWYRQAPGKQRELVAHSTSGGSTDYADSVKGRFTISRDNAKNTVYLQMNSLKPEDTAVYYCNADVRTRWYASNNYWGQGTQVTVSS
modifications: T2a Nanobody amino acid sequence
- thermostabilization of stab-CFTR (Tm increase): 8 °C
